How the values were obtained:
[1] = molecular target: T1, APRYRQRAA (9-mer on peptide array)
T1 chain: APRYRQRAA

[2] = molecular target: T2, AYRTK (5-mer on peptide array)
T2 chain: AYRTK

[3] = molecular target: T3, DYFLQ (5-mer on peptide array)
T3 chain: DYFLQ

[4] = molecular target: T4, DYWLQ (5-mer on peptide array)
T4 chain: DYWLQ

[5] = molecular target: T5, EYALQ (5-mer on peptide array)
T5 chain: EYALQ

[6] = molecular target: T6, PRYRQ (5-mer on peptide array)
T6 chain: PRYRQ

[7] = molecular target: T7, PYKYK (5-mer on peptide array)
T7 chain: PYKYK

[8] = molecular target: T8, QRQTR (5-mer on peptide array)
T8 chain: QRQTR

[9] = molecular target: T9, RFSQR (5-mer on peptide array)
T9 chain: RFSQR

[10] = molecular target: T10, RWKFK (5-mer on peptide array)
T10 chain: RWKFK

[11] = molecular target: T11, RYESK (5-mer on peptide array)
T11 chain: RYESK

[12] = molecular target: T12, RYRSK (5-mer on peptide array)
T12 chain: RYRSK

[13] = molecular target: T13, RYSYK (5-mer on peptide array)
T13 chain: RYSYK

[14] = molecular target: T14, Thermus thermophilus SlyD FKBP domain with grafted KalbTG Q-tag RYRQR, 8xHis
T14 chain: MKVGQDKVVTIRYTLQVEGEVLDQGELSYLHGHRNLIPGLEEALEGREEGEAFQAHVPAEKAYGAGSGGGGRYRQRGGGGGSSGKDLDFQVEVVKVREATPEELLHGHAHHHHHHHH

[15] = molecular target: T15, VRQRQ (5-mer on peptide array)
T15 chain: VRQRQ

[16] = molecular target: T16, WYALQ (5-mer on peptide array)
T16 chain: WYALQ

[17] = molecular target: T17, YKGRG (5-mer on peptide array)
T17 chain: YKGRG

[18] = molecular target: T18, YKYAK (5-mer on peptide array)
T18 chain: YKYAK

[19] = molecular target: T19, YQKWK (5-mer on peptide array)
T19 chain: YQKWK

[20] = molecular target: T20, YRQRA (5-mer on peptide array)
T20 chain: YRQRA

Z-[GGGAYRTKGGGG] = molecular target: T21, Z-[GGGAYRTKGGGG]
T21 chain: GGGAYRTKGGGG

Z-[GGGFRQRGGGGG] = molecular target: T22, Z-[GGGFRQRGGGGG]
T22 chain: GGGFRQRGGGGG

Z-[GGGFRQRQGGGG] = molecular target: T23, Z-[GGGFRQRQGGGG]
T23 chain: GGGFRQRQGGGG

Z-[GGGQYRQRGGGG] = molecular target: T24, Z-[GGGQYRQRGGGG]
T24 chain: GGGQYRQRGGGG

Z-[GGGRQRQRGGGG] = molecular target: T25, Z-[GGGRQRQRGGGG]
T25 chain: GGGRQRQRGGGG

Z-[GGGRYGKSGGGG] = molecular target: T26, Z-[GGGRYGKSGGGG]
T26 chain: GGGRYGKSGGGG

Z-[GGGRYRQRGGGG] = molecular target: T27, Z-[GGGRYRQRGGGG]
T27 chain: GGGRYRQRGGGG

Z-[GGGRYRSKGGGG] = molecular target: T28, Z-[GGGRYRSKGGGG]
T28 chain: GGGRYRSKGGGG

Z-[GGGRYSQRGGGG] = molecular target: T29, Z-[GGGRYSQRGGGG]
T29 chain: GGGRYSQRGGGG

Z-[GGGYRYRQGGGG] = molecular target: T30, Z-[GGGYRYRQGGGG]
T30 chain: GGGYRYRQGGGG

B1: Kutzneria albida microbial transglutaminase, activated enzyme (KalbTGt3) (protein)
chain: APLAPPLAEDRSYRTWRVEDYVEAWERYHGREMTEDERENLARGCIGVTVVNLNREDLSNPPLNLSFGSLRTAEAVQAALNKIVDTHPSPAQYEAAVAKDPILKRLKNVVKALPSWIDSAKLKASIFSKRFYSWQNPDWSEERAHTTYRPDRETDQVDMSTYRYRARPGYVNFDYGWFDQDTNTWWHANHEEPRMVVYQSTLRHYSRPLQDFDEQVFTVAFAKKDGGGSGHHHHHHHH
peptide array, second round of maturation [1]: A second round of maturation on the peptide array yielded APRYRQRAA (SEQ ID NO:24) as the top performing 9-mer substrate
Array signal (log2) [2]: 12.6 log2
5-mer peptide array signal with KalbTG [3]: exhibited relatively lower signal on the KalbTG array
5-mer peptide array signal with KalbTG [4]: exhibited relatively lower signal on the KalbTG array
5-mer peptide array signal with KalbTG [5]: exhibited relatively lower signal on the KalbTG array
5-mer peptide array, incorporation of biotinylated amine donor [6]: the top 22 glutamine-donor substrates identified on the 5-mer peptide array with KalbTG
5-mer peptide array, incorporation of biotinylated glutamine donor Z-APRYRQRAAGGG-PEG-biotin [7]: the top 17 lysine-donor substrates identified on the 5-mer peptide array with KalbTG
5-mer peptide array, incorporation of biotinylated amine donor [8]: the top 22 glutamine-donor substrates identified on the 5-mer peptide array with KalbTG
5-mer peptide array, incorporation of biotinylated amine donor [9]: the top 22 glutamine-donor substrates identified on the 5-mer peptide array with KalbTG
5-mer peptide array, incorporation of biotinylated glutamine donor Z-APRYRQRAAGGG-PEG-biotin [10]: the top 17 lysine-donor substrates identified on the 5-mer peptide array with KalbTG
5-mer peptide array, incorporation of biotinylated glutamine donor Z-APRYRQRAAGGG-PEG-biotin [11]: the top 17 lysine-donor substrates identified on the 5-mer peptide array with KalbTG
Array signal (log2) [11]: 12.7 log2
Array signal (log2) [12]: 12.4 log2
5-mer peptide array, incorporation of biotinylated glutamine donor Z-APRYRQRAAGGG-PEG-biotin [13]: the top 17 lysine-donor substrates identified on the 5-mer peptide array with KalbTG
labeling yield with KalbTG K-tag-Cy3 (SDS-PAGE, in-gel fluorescence) [14]: approximately 70% yield of a labeled protein species after 15 minutes
5-mer peptide array, incorporation of biotinylated amine donor [15]: the top 22 glutamine-donor substrates identified on the 5-mer peptide array with KalbTG
5-mer peptide array signal with KalbTG [16]: exhibited relatively lower signal on the KalbTG array
Array signal (log2) [17]: 12.2 log2
5-mer peptide array, incorporation of biotinylated glutamine donor Z-APRYRQRAAGGG-PEG-biotin [18]: the top 17 lysine-donor substrates identified on the 5-mer peptide array with KalbTG
5-mer peptide array, incorporation of biotinylated glutamine donor Z-APRYRQRAAGGG-PEG-biotin [19]: the top 17 lysine-donor substrates identified on the 5-mer peptide array with KalbTG
5-mer peptide array, incorporation of biotinylated amine donor [20]: the top 22 glutamine-donor substrates identified on the 5-mer peptide array with KalbTG
Reaction Rate in Solution (pmol s^-1), GLDH-coupled assay with 200 µM glutamine donor (Z-[GGGAYRTKGGGG]): 3.65 pmol/s
Reaction rate in solution (pmol/s), GLDH-coupled assay (Z-[GGGFRQRGGGGG]): 2.11 pmol/s
Reaction rate in solution (pmol/s), GLDH-coupled assay (Z-[GGGFRQRQGGGG]): 3.07 pmol/s
Reaction rate in solution (pmol/s), GLDH-coupled assay (Z-[GGGQYRQRGGGG]): 1.92 pmol/s
Reaction rate in solution (pmol/s), GLDH-coupled assay (Z-[GGGRQRQRGGGG]): 2.06 pmol/s
Reaction Rate in Solution (pmol s^-1), GLDH-coupled assay with 200 µM glutamine donor (Z-[GGGRYGKSGGGG]): 2.66 pmol/s
Reaction rate in solution (pmol/s), GLDH-coupled assay (Z-[GGGRYRQRGGGG]): 3.6 pmol/s
Reaction Rate in Solution (pmol s^-1), GLDH-coupled assay with 200 µM glutamine donor (Z-[GGGRYRSKGGGG]): 3.26 pmol/s
Reaction rate in solution (pmol/s), GLDH-coupled assay (Z-[GGGRYSQRGGGG]): 3.22 pmol/s
KM (Z-[GGGYRYRQGGGG]): 2150 µM
Reaction rate in solution (pmol/s), GLDH-coupled assay (Z-[GGGYRYRQGGGG]): 3.52 pmol/s
Vmax (Z-[GGGYRYRQGGGG]): 73.2 pmol/s
kcat (Z-[GGGYRYRQGGGG]): 1.92 s⁻¹
kcat/KM (Z-[GGGYRYRQGGGG]): 890 M⁻¹ s⁻¹

— patent US20200249231
